Changes are numbered by the printed parent chain. Names and notes keep the numbering of the source.
Legend:
crystal structure = molecular target: the molecule itself; assay: crystal structure
dynamic light scattering = molecular target: the molecule itself; assay: dynamic light scattering
SEC = molecular target: the molecule itself; assay: SEC

B1: 2-aminomuconic 6-semialdehyde dehydrogenase (AmnC), wild type (enzyme, Pseudomonas sp. AP-3, UniProt Q9KWS5 1-491, looked up)
chain: MKQYRNFVDGKWVESSKTFQDVTPIDGSVVAVVHEADRDLVDAAVKAGHRALEGEWGRTTAAQRVDWLRRIANEMERRQQDFLDAEMADTGKPLSMAATIDIPRGIANFRNFADILATAPVDSHRLDLPDGAYALNYAARKPLGVVGVISPWNLPLLLLTWKVAPALACGNAVVVKPSEDTPGTATLLAEVMEAVGIPPGVFNLVHGFGPNSAGEFISQHPDISAITFTGESKTGSTIMRAAAEGVKPVSFELGGKNAAVIFADCDFEKMLDGMMRALFLNSGQVCLCSERVYVERPIFDRFCVALAERIKALKVDWPHETDTQMGPLISSKHRDKVLSYFELARQEGATFLAGGGVPRFGDERDNGAWVEPTVIAGLSDDARVVREEIFGPICHVTPFDSESEVIRRANDTRYGLAATIWTTNLSRAHRVSELMRVGISWVNTWFLRDLRTPFGGAGLSGIGREGGMHSLNFYSELTNVCVRIDKESPDV
stoichiometry N (crystal structure): 4

B2: AmnC ΔOD2 (S123G, H124G, L425A) (enzyme, Pseudomonas sp. AP-3, UniProt Q9KWS5 1-491, looked up)
chain: B1 chain with S123G, H124G, L425A
stoichiometry N (dynamic light scattering): 2
stoichiometry N (SEC): ~2

B3: AmnC ΔOD1 (Δ124-138 and Δ477-491) (enzyme, Pseudomonas sp. AP-3, UniProt Q9KWS5 1-476, looked up)
chain: MKQYRNFVDGKWVESSKTFQDVTPIDGSVVAVVHEADRDLVDAAVKAGHRALEGEWGRTTAAQRVDWLRRIANEMERRQQDFLDAEMADTGKPLSMAATIDIPRGIANFRNFADILATAPVDSARKPLGVVGVISPWNLPLLLLTWKVAPALACGNAVVVKPSEDTPGTATLLAEVMEAVGIPPGVFNLVHGFGPNSAGEFISQHPDISAITFTGESKTGSTIMRAAAEGVKPVSFELGGKNAAVIFADCDFEKMLDGMMRALFLNSGQVCLCSERVYVERPIFDRFCVALAERIKALKVDWPHETDTQMGPLISSKHRDKVLSYFELARQEGATFLAGGGVPRFGDERDNGAWVEPTVIAGLSDDARVVREEIFGPICHVTPFDSESEVIRRANDTRYGLAATIWTTNLSRAHRVSELMRVGISWVNTWFLRDLRTPFGGAGLSGIGREGGMHSLNFYSE
stoichiometry N (dynamic light scattering): 2
stoichiometry N (SEC): ~2

From article doi:10.1101/2021.07.15.452591 (bioRxiv, 2021)
